According to US8936806B2, “Periostin induces proliferation of cardiomyocytes and promotes cardiac regeneration” (Children's Medical Center Corporation, priority 2007, dated 2015):

Assays:
[1] = test system: atrial natriuretic factor (ANF); experiment: Transcription of atrial natriuretic factor by RT-PCR in neonatal cardiomyocytes; type: cell-based, rat; settings: 72 hr stimulation
Procedure: RNA was prepared using Trizol reagent (Invitrogen) from neonatal rat ventricular cardiomyocytes after 72 hr of stimulation. Complementary DNA was synthesized from 2 μg RNA with the SuperScriptIII kit (Invitrogen) using oligo-dT primers. One μL cDNA was used as template for 20 μL PCR-reactions (95° C. for 2 min, 30 cycles of 95° C. for 2 min, 55° C. for 2 min, 72° C. for 5 min, followed by 72° C. for 10 min). Oligonucleotide primers used for detection of ANF were F: 5′-[…]-3′ (Seq ID No. 2), R: 5′-[…]-3′ (Seq ID No. 3), β-actin were F: 5′-[…]-3′ (Seq ID No. 4), R: 5′-[…]-3′ (Seq ID No. 5), […] were F: 5′-[…]-3′ (Seq ID No. 6), R: 5′-[…]-3′ (Seq ID No. 7); SMA were F: 5′-[…]-3′ (Seq ID No. 8), R: 5′-[…]-3′ (Seq ID No. 9); SERCA2 were F: 5′-[…]-3′ (Seq ID No. 10), R: 5′-[…]-3′ (Seq ID No. 11), and for GAPDH: 5′-[…]-3′ (Seq ID No. 12), R: 5′-[…]-3′ (Seq ID No. 13).

[2] = test system: Adult male Sprague-Dawley rats; experiment: Cardiomyocyte cell cycle activity in vivo after intramyocardial injection; parameters: species or system rat; LVFW CM nuclei: unit not given here
Procedure: Experiments were performed in accordance with institutional guidelines of Massachusetts General Hospital. Injections and analyses were performed in a blinded fashion. Adult male Sprague-Dawley rats (300 gm, Charles River Laboratories) underwent thoracotomy and received intramyocardial injections of 50 μg of recombinant human periostin consisting of the fas1-4 domains, 50 μg of rat fibronectin, or 100 μL of 100 mM sodium acetate as a control (5 rats per group). The survival rate for this procedure was 80%. Injected periostin was confirmed by detection with a polyclonal antibody directed against human periostin (Abcam) and visualized by immunofluorescence microscopy. Intraperitoneal injections of BrdU (70 μmol/kg body weight) with a tissue half life of 2 hr were given every 48 hr, and rats were sacrificed after the third injection. Horizontal cryosections of 14 μm thickness spaced at 1 mm intervals were analyzed by laser scanning immunofluorescence microscopy. BrdU-positive cardiomyocyte nuclei and cytokineses were quantified on 16-20 sections per heart. Fibrosis and cardiomyocyte cross-sectional area were determined on 5 Masson's Trichrome-stained sections at the level of the injection at 40× magnification and quantified using the Metamorph software package (Molecular Devices Corp., Downingtown, Pa.).

[3] = test system: primary adult rat ventricular cardiomyocytes; experiment: Cytokinesis (aurora B kinase) in primary adult rat ventricular cardiomyocytes; type: cell-based
Description: (§1) Primary neonatal rat ventricular cardiomyocytes were isolated using the Neomyts kit (Cellutron, Highland Park, N.J.), seeded at a density of 10^5 cells/cm^2 onto gelatin-coated cover slips, stimulated for 3 days, and labeled with BrdU for the terminal 2 days. Primary adult ventricular cardiomyocytes were isolated from male (300 gm) Wistar rats (Charles River Laboratories) and maintained as described (Engel, F. B. et al. p38 MAP kinase inhibition enables proliferation of adult mammalian cardiomyocytes. Genes Dev 19, 1175-87 (2005)). Adult cardiomyocytes were stimulated daily for 9 days and labeled with 30 μM BrdU for the terminal 3 days. Cardiomyocytes were stimulated with periostin (500 ng/mL) and FGF (100 ng/mL). Inhibiting antibodies were added at a concentration of 10 μg/mL, cRGD at 10 μM, U0126 at 10 μM, PD98059 at 1 μM, LY294002 at 10 μM, and Wortmannin at 0.1 μM 30 min prior to stimulation. The vehicle used to dissolve factors or chemicals was added to unstimulated samples, which were then processed together with the test samples.
(§2) DNA-synthesis was analyzed by visualization of BrdU uptake and cytokinesis was determined by detection of the cleavage furrow and the midbody with an antibody against aurora B kinase as described (Engel, F. B. et al. p38 MAP kinase inhibition enables proliferation of adult mammalian cardiomyocytes. Genes Dev 19, 1175-87 (2005)). Signals were visualized with secondary antibodies conjugated to Alexa 488, Alexa 546, Alexa 594, and Alexa 647 (Invitrogen). Nuclei were visualized with 4′,6′-diamidino-2-phenylindole (DAPI, Invitrogen). For image acquisition, the value for γ was set at 1 and the lookup table settings were linear.

[4] = test system: primary neonatal rat ventricular cardiomyocytes; experiment: DNA synthesis, mitosis and cytokinesis in primary neonatal rat ventricular cardiomyocytes; type: cell-based
Description: as §1, §2

[5] = test system: primary neonatal rat ventricular cardiomyocytes; experiment: Cell cycle markers (Ki-67, phosphorylated Rb, cyclin A) in neonatal cardiomyocytes; type: cell-based
Description: as §1, §2

[6] = test system: Adult male Sprague-Dawley rats; experiment: Cardiomyocyte cell cycle activity in vivo after intramyocardial injection; parameters: species or system rat; settings: dispersed isolated cardiomyocytes
[7] = test system: primary neonatal rat ventricular cardiomyocytes; experiment: Cardiomyocyte apoptosis (TUNEL) and survival
Procedure: To determine cardiomyocyte proliferation, primary neonatal rat ventricular cardiomyocytes were quantified by counting with a hemocytometer after 3 days and 6 days of stimulation. To determine cardiomyocyte survival, primary neonatal rat ventricular cardiomyocytes were pre-treated with 500 ng/mL periostin or buffer for 30 min and then exposed to 0.5 μM doxycycline or 100 ng/mL TNFα for 24 hr and quantified by counting. Corresponding samples were stained with an antibody directed against tropomyosin as a cardiomyocyte marker to control for the percentage of differentiated cardiomyocytes. Apoptotic cardiomyocyte nuclei were determined after 24 hr with the In situ Cell Death Detection Kit (Roche, Indianapolis, Ind.) in combination with staining for troponin I.

[8] = 1 week after intracardiac injection

B1: periostin: Recombinant periostin, purified from HEK293 cells expressing the full-length human cDNA; secreted protein of 834 amino acids (Seq ID. No. 1) (protein, listed as Homo sapiens)
chain: MIPFLPMFSLLLLLIVNPINANNHYDKILAHSRIRGRDQGPNVCALQQILGTKKKYFSTCKNWYKKSICGQKTTVLYECCPGYMRMEGMKGCPAVLPIDHVYGTLGIVGATTTQRYSDASKLREEIEGKGSFTYFAPSNEAWDNLDSDIRRGLESNVNVELLNALHSHMINKRMLTKDLKNGMIIPSMYNNLGLFINHYPNGVVTVNCARIIHGNQIATNGVVHVIDRVLTQIGTSIQDFIEAEDDLSSFRAAAITSDILEALGRDGHFTLFAPTNEAFEKLPRGVLERFMGDKVASEALMKYHILNTLQCSESIMGGAVFETLEGNTIEIGCDGDSITVNGIKMVNKKDIVTNNGVIHLIDQVLIPDSAKQVIELAGKQQTTFTDLVAQLGLASALRPDGEYTLLAPVNNAFSDDTLSMVQRLLKLILQNHILKVKVGLNELYNGQILETIGGKQLRVFVYRTAVCIENSCMEKGSKQGRNGAIHIFREIIKPAEKSLHEKLKQDKRFSTFLSLLEAADLKELLTQPGDWTLFVPTNDAFKGMTSEEKEILIRDKNALQNIILYHLTPGVFIGKGFEPGVTNILKTTQGSKIFLKEVNDTLLVNELKSKESDIMTTNGVIHVVDKLLYPADTPVGNDQLLEILNKLIKYIQIKFVRGSTFKEIPVTVYTTKIITKVVEPKIKVIEGSLQPIIKTEGPTLTKVKIEGEPEFRLIKEGETITEVIHGEPIIKKYTKIIDGVPVEITEKETREERIITGPEIKYTRISTGGGETEETLKKLLQEEVTKVTKFIEGGDGHLFEDEEIKRLLQGDTPVRKLQANKKVQGSRRRLREGRSQ
transcription of atrial natriuretic factor (ANF) [1]: did not induce
LVFW BrdU-positive CM nuclei [2, 8]: 0.051 ± 0.0021 %
LVFW CM nuclei [2, 8]: 10.3 ± 0.3 10^$$ per heart
LVFW cytokineses [2, 8]: 0.008±0.002%
LVFW BrdU-positive CM nuclei ([2]; 1 week after intracardiac injection, 3 BrdU injections): 5,322±363 per heart
LVFW BrdU-positive CM nuclei ([2]; 1 week after intracardiac injection, 3 BrdU injections, listed as PN): 5411 ± 376 per heart
LVFW myocardial volume ([2]; 1 week after intracardiac injection, 50 μg periostin (fas1-4 domains) or 50 μg rat fibronectin): 211.3 ± 12.3 mm^3
LVFW cytokineses ([2]; 1 week after intracardiac injection, listed as Periostin): 821±176 per heart
fibrosis after intramyocardial injection ([2]; FIG. 4a): did not induce
hypertrophy (cardiomyocyte cross-sectional area) after intramyocardial injection ([2]; FIG. 4b): did not induce
H3P-positive binucleated cardiomyocytes ([2]; dispersed isolated cardiomyocytes, in vivo): 0.04±0.01%
DNA synthesis, of cardiomyocyte nuclei in the injected area ([2]; rat, in vivo): 0.7±0.1%
cytokinesis, of cardiomyocyte nuclei in the injected area ([2]; rat, in vivo): 0.1±0.03%
increase of DNA synthesis compared with buffer-injected hearts ([2]; rat, in vivo): 8 fold
increase of cytokinesis compared with buffer-injected hearts ([2]; rat, in vivo): 11.5 fold
cytokinesis, of all differentiated cardiomyocytes ([3]; 9 days stimulation): 0.5±0.2%
BrdU-labeled nuclei in cardiomyocyte cytokineses ([3]; N=15): 100%
first detection of cytokinesis ([3]; time-course of stimulation): ≥ 6 days
DNA synthesis, of cardiomyocytes ([4]; 500 ng/mL, 3 days): 35±5%
increase of DNA synthesis over non-stimulated cardiomyocytes ([4]; 500 ng/mL, 3 days): 5 fold
increase of cardiomyocyte mitoses ([4]; 3 days): 12 fold
increase of cytokineses ([4]; 3 days): 8 fold
induction of cardiomyocyte DNA synthesis ([4]; FIG. 2d, 2e): stimulated DNA synthesis as effectively as FGF
EC50 ([4]; increasing concentrations of periostin (FIG. 2a), read-out: half-maximal stimulation of cardiomyocyte DNA synthesis): 155 ± 25 nM
increase of cardiomyocytes expressing cyclin A [5]: 11 fold
increase of cardiomyocytes with phosphorylated Rb [5]: 12 fold
increase of proliferating cardiomyocytes (Ki-67) [5]: 4 fold
H3P-positive mononucleated cardiomyocytes [6]: 2±0.2%
cardiomyocyte survival ([7]; 500 ng/mL pre-treatment, then doxorubicin or TNF-α 24 hr): not affected
doxorubicin or TNF-α-induced cardiomyocyte death ([7]; FIG. 2L): did not reduce
baseline and induced cardiomyocyte apoptosis ([7]; TUNEL, 24 hr): not affected
